Experimental data published in patent publication EP4692114A1, “CALCITONIN ANALOGUE, AND DERIVATIVE THEREOF AND USE THEREOF” (Hangzhou Sciwind Biosciences Co., Ltd., priority 2023, dated 2024).
*1 amine or outer side, *2 acyl side, *3 side chain or, on linkers, in order; H or OH if unused. Where a SMILES comes first, the peptide text is derived from it. Primed or numbered codes have the meaning given here. The star is where a group is joined. C22 diacid = O=C(O)CCCCCCCCCCCCCCCCCCCCC(=O)*; C20 diacid = O=C(O)CCCCCCCCCCCCCCCCCCC(=O)*; C18 diacid = O=C(O)CCCCCCCCCCCCCCCCC(=O)*; γGlu = O=C(O)[C@H](CCC(=O)[*:2])N[*:1]; Inp′ = not defined here; Trx′ = not defined here; Inp = O=C(O)C1CCNCC1

B1: calcitonin derivative M38 (peptide)
peptide: {C22 diacid-γGlu}-ASQLSTAVLGRLSDELHRLQDYPRTDVGSGSP-NH2
SMILES: CC(C)C[C@H](NC(=O)[C@H](CCCNC(=N)N)NC(=O)CNC(=O)[C@H](CC(C)C)NC(=O)[C@@H](NC(=O)[C@H](C)NC(=O)[C@@H](NC(=O)[C@H](CO)NC(=O)[C@H](CC(C)C)NC(=O)[C@H](CCC(N)=O)NC(=O)[C@H](CO)NC(=O)[C@H](C)NC(=O)CC[C@H](NC(=O)CCCCCCCCCCCCCCCCCCCCC(=O)O)C(=O)O)[C@@H](C)O)C(C)C)C(=O)N[C@@H](CO)C(=O)N[C@@H](CC(=O)O)C(=O)N[C@@H](CCC(=O)O)C(=O)N[C@@H](CC(C)C)C(=O)N[C@@H](Cc1c[nH]cn1)C(=O)N[C@@H](CCCNC(=N)N)C(=O)N[C@@H](CC(C)C)C(=O)N[C@@H](CCC(N)=O)C(=O)N[C@@H](CC(=O)O)C(=O)N[C@@H](Cc1ccc(O)cc1)C(=O)N1CCC[C@H]1C(=O)N[C@@H](CCCNC(=N)N)C(=O)N[C@H](C(=O)N[C@@H](CC(=O)O)C(=O)N[C@H](C(=O)NCC(=O)N[C@@H](CO)C(=O)NCC(=O)N[C@@H](CO)C(=O)N1CCC[C@H]1C(N)=O)C(C)C)[C@@H](C)O
B2: calcitonin derivative M21 (peptide)
peptide: {C20 diacid-γGlu}-ASQLSTAVLGRLSQELHRLQDYPRTDVGSESP-NH2
SMILES: CC(C)C[C@H](NC(=O)[C@H](CCCNC(=N)N)NC(=O)CNC(=O)[C@H](CC(C)C)NC(=O)[C@@H](NC(=O)[C@H](C)NC(=O)[C@@H](NC(=O)[C@H](CO)NC(=O)[C@H](CC(C)C)NC(=O)[C@H](CCC(N)=O)NC(=O)[C@H](CO)NC(=O)[C@H](C)NC(=O)CC[C@H](NC(=O)CCCCCCCCCCCCCCCCCCC(=O)O)C(=O)O)[C@@H](C)O)C(C)C)C(=O)N[C@@H](CO)C(=O)N[C@@H](CCC(N)=O)C(=O)N[C@@H](CCC(=O)O)C(=O)N[C@@H](CC(C)C)C(=O)N[C@@H](Cc1c[nH]cn1)C(=O)N[C@@H](CCCNC(=N)N)C(=O)N[C@@H](CC(C)C)C(=O)N[C@@H](CCC(N)=O)C(=O)N[C@@H](CC(=O)O)C(=O)N[C@@H](Cc1ccc(O)cc1)C(=O)N1CCC[C@H]1C(=O)N[C@@H](CCCNC(=N)N)C(=O)N[C@H](C(=O)N[C@@H](CC(=O)O)C(=O)N[C@H](C(=O)NCC(=O)N[C@@H](CO)C(=O)N[C@@H](CCC(=O)O)C(=O)N[C@@H](CO)C(=O)N1CCC[C@H]1C(N)=O)C(C)C)[C@@H](C)O
B3: calcitonin derivative M8 (peptide)
peptide: {C20 diacid-γGlu}-ASQLSTAVLGRLSDELHRLQDYPRTDVGSGSP-NH2
SMILES: CC(C)C[C@H](NC(=O)[C@H](CCCNC(=N)N)NC(=O)CNC(=O)[C@H](CC(C)C)NC(=O)[C@@H](NC(=O)[C@H](C)NC(=O)[C@@H](NC(=O)[C@H](CO)NC(=O)[C@H](CC(C)C)NC(=O)[C@H](CCC(N)=O)NC(=O)[C@H](CO)NC(=O)[C@H](C)NC(=O)CC[C@H](NC(=O)CCCCCCCCCCCCCCCCCCC(=O)O)C(=O)O)[C@@H](C)O)C(C)C)C(=O)N[C@@H](CO)C(=O)N[C@@H](CC(=O)O)C(=O)N[C@@H](CCC(=O)O)C(=O)N[C@@H](CC(C)C)C(=O)N[C@@H](Cc1c[nH]cn1)C(=O)N[C@@H](CCCNC(=N)N)C(=O)N[C@@H](CC(C)C)C(=O)N[C@@H](CCC(N)=O)C(=O)N[C@@H](CC(=O)O)C(=O)N[C@@H](Cc1ccc(O)cc1)C(=O)N1CCC[C@H]1C(=O)N[C@@H](CCCNC(=N)N)C(=O)N[C@H](C(=O)N[C@@H](CC(=O)O)C(=O)N[C@H](C(=O)NCC(=O)N[C@@H](CO)C(=O)NCC(=O)N[C@@H](CO)C(=O)N1CCC[C@H]1C(N)=O)C(C)C)[C@@H](C)O
B4: calcitonin derivative M39 (peptide)
peptide: {C18 diacid-γGlu}-ASQLSTAVLGRLSDELHRLQDYPRTDVGSGSP-NH2
SMILES: CC(C)C[C@H](NC(=O)[C@H](CCCNC(=N)N)NC(=O)CNC(=O)[C@H](CC(C)C)NC(=O)[C@@H](NC(=O)[C@H](C)NC(=O)[C@@H](NC(=O)[C@H](CO)NC(=O)[C@H](CC(C)C)NC(=O)[C@H](CCC(N)=O)NC(=O)[C@H](CO)NC(=O)[C@H](C)NC(=O)CC[C@H](NC(=O)CCCCCCCCCCCCCCCCC(=O)O)C(=O)O)[C@@H](C)O)C(C)C)C(=O)N[C@@H](CO)C(=O)N[C@@H](CC(=O)O)C(=O)N[C@@H](CCC(=O)O)C(=O)N[C@@H](CC(C)C)C(=O)N[C@@H](Cc1c[nH]cn1)C(=O)N[C@@H](CCCNC(=N)N)C(=O)N[C@@H](CC(C)C)C(=O)N[C@@H](CCC(N)=O)C(=O)N[C@@H](CC(=O)O)C(=O)N[C@@H](Cc1ccc(O)cc1)C(=O)N1CCC[C@H]1C(=O)N[C@@H](CCCNC(=N)N)C(=O)N[C@H](C(=O)N[C@@H](CC(=O)O)C(=O)N[C@H](C(=O)NCC(=O)N[C@@H](CO)C(=O)NCC(=O)N[C@@H](CO)C(=O)N1CCC[C@H]1C(N)=O)C(C)C)[C@@H](C)O
B5: calcitonin derivative M6 (peptide)
peptide: {C20 diacid-γGlu}-ASQLSTAVLGRLSQELHRLQDYPRTDVGSGSP-NH2
SMILES: CC(C)C[C@H](NC(=O)[C@H](CCCNC(=N)N)NC(=O)CNC(=O)[C@H](CC(C)C)NC(=O)[C@@H](NC(=O)[C@H](C)NC(=O)[C@@H](NC(=O)[C@H](CO)NC(=O)[C@H](CC(C)C)NC(=O)[C@H](CCC(N)=O)NC(=O)[C@H](CO)NC(=O)[C@H](C)NC(=O)CC[C@H](NC(=O)CCCCCCCCCCCCCCCCCCC(=O)O)C(=O)O)[C@@H](C)O)C(C)C)C(=O)N[C@@H](CO)C(=O)N[C@@H](CCC(N)=O)C(=O)N[C@@H](CCC(=O)O)C(=O)N[C@@H](CC(C)C)C(=O)N[C@@H](Cc1c[nH]cn1)C(=O)N[C@@H](CCCNC(=N)N)C(=O)N[C@@H](CC(C)C)C(=O)N[C@@H](CCC(N)=O)C(=O)N[C@@H](CC(=O)O)C(=O)N[C@@H](Cc1ccc(O)cc1)C(=O)N1CCC[C@H]1C(=O)N[C@@H](CCCNC(=N)N)C(=O)N[C@H](C(=O)N[C@@H](CC(=O)O)C(=O)N[C@H](C(=O)NCC(=O)N[C@@H](CO)C(=O)NCC(=O)N[C@@H](CO)C(=O)N1CCC[C@H]1C(N)=O)C(C)C)[C@@H](C)O

Tests used:
[1] = Heat accelerated stability assay under a neutral condition; type: physicochemical; settings: pH about 7.4, 40°C
Protocol: The lyophilized powder (1 mg/mL) of calcitonin analogues or derivatives prepared in accordance with the method of Example 1 were mixed with sodium dihydrogen phosphate (1.42 mg/mL) and dissolved in ultrapure water in the indicated mass-volume ratios. After adjusting pH to about 7.4 with hydrochloric acid/sodium hydroxide, the solution was filtered into a sterilized vial in a clean bench using a 0.22 µm sterile filter. The vial was then capped and placed into the stability test chamber at 40°C. Detections were made on Days 7 (7d) and 26 (26d), and during the assay, changes in the characteristics and properties of the polypeptides were observed and recorded. The sample was then centrifuged for 3 min at 10000 rpm at 4°C, and the supernatant was transferred to a liquid phase sample vial for detecting the concentration and purity of the polypeptides using liquid phase chromatography described as below, wherein the concentration of the polypeptide = peak area/injection volume/extinction coefficient/60×flow rate, and the purity of the polypeptide = target peak area/total peak area× 100%.
Conditions of the reversed phase chromatography Flow rate: 1.0 ml/min; Autosampler temperature: 15°C; Column temperature: 25°C; Detection wavelengths: 280 nm and 214 nm; Mobile phase A: 100% H2O+0.05% TFA; Mobile phase B: 100% ACN; and Gradient of elution listed in Table 4: Table 4. Listing of the gradient of elution in the liquid phase chromatography
Results were shown below in Tables 5, 6, and 7. A difference of more than 5% in content as compared with the initial value was typically assumed (for example, as prescribed by the Chinese Pharmacopeia (2020 Edition)) to be a significant change. Within a reasonable margin of error, a decrease of less than 1% from the initial value to the detected content is denoted as "no change" below. Table 5. Changes in characteristics or properties in the heat accelerated stability assay

[2] = biological target: T1, human amylin receptor (AMY3) on CHO-K1/Gal5/AMY3 cells (human, UniProt P30988 25-474; O60896 24-148); experiment: cell-based or functional assay
T1 sequence (looked up) 1: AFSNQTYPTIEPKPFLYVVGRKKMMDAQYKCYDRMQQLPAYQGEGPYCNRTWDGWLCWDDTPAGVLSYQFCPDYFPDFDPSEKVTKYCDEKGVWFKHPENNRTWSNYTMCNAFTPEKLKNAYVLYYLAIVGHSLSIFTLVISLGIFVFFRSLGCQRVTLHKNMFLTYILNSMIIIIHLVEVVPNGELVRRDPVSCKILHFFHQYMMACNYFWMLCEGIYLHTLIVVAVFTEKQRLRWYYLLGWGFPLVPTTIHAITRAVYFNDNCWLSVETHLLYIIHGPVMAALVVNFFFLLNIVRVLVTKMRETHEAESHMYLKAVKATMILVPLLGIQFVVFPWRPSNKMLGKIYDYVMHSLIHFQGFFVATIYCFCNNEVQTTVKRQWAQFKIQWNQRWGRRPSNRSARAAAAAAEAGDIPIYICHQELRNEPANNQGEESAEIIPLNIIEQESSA
T1 sequence (looked up) 2: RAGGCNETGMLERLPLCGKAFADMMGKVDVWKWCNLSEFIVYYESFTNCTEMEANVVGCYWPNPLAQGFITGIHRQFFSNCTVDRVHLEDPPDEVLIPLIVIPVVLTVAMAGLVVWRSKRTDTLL

| EC50/nM, CRE-luciferase in amylin receptor/CRE-luc CHO cells [2] | further results | Molecule |
| --- | --- | --- |
|  | Changes in characteristics or properties, 0d ([1]; 1 mg/mL, phosphate, 0d): Clear; Changes in characteristics or properties, 7d ([1]; 1 mg/mL, phosphate, 7d): Clear; Concentration change (7d-0d)/% ([1]; Day 7 vs Day 0, reversed phase chromatography): -1.678%; Purity Change% (7d-0d) ([1]; purity from reversed phase chromatography-214 nm, Day 7 vs Day 0): -1%; Purity Change% (26d-0d) ([1]; purity from reversed phase chromatography-214 nm, Day 26 vs Day 0): -3.9% | CC(C)C[C@H](NC(=O)[C@H](CCCNC(=N)N)NC(=O)CNC(=O)[C@H](CC(C)C)NC(=O)[C@@H](NC(=O)[C@H](C)NC(=O)[C@@H](NC(=O)[C@H](CO)NC(=O)[C@H](CC(C)C)NC(=O)[C@H](CCC(N)=O)NC(=O)[C@H](CO)NC(=O)[C@H](C)NC(=O)C1CCN(C(=O)CCCCCCCCCCCCCCCCC(=O)O)CC1)[C@@H](C)O)C(C)C)C(=O)N[C@@H](CO)C(=O)N[C@@H](CC(=O)O)C(=O)N[C@@H](CCC(=O)O)C(=O)N[C@@H](CC(C)C)C(=O)N[C@@H](Cc1c[nH]cn1)C(=O)N[C@@H](CCCNC(=N)N)C(=O)N[C@@H](CC(C)C)C(=O)N[C@@H](CCC(N)=O)C(=O)N[C@@H](CC(=O)O)C(=O)N[C@@H](Cc1ccc(O)cc1)C(=O)N1CCC[C@H]1C(=O)N[C@@H](CCCNC(=N)N)C(=O)N[C@H](C(=O)N[C@@H](CC(=O)O)C(=O)N[C@H](C(=O)NCC(=O)N[C@@H](CO)C(=O)NCC(=O)N[C@@H](CO)C(=O)N1CCC[C@H]1C(N)=O)C(C)C)[C@@H](C)O [M48] ({C18 diacid-Inp}-ASQLSTAVLGRLSDELHRLQDYPRTDVGSGSP-NH2) |
| 0.022 nM |  | B1 |
| 0.017 nM |  | {C20 diacid-Inp′}-ASQLSTAVLGRLSEELHRLQDYPRTDVGSGSP-NH2 [calcitonin derivative M56] |
| 0.017 nM |  | B2 |
| 0.017 nM |  | B3 |
| 0.016 nM |  | B4 |
| 0.017 nM |  | {C20 diacid-Trx′}-ASQLSTAVLGRLSEELHRLQDYPRTDVGSGSP-NH2 (reading uncertain) [calcitonin derivative M55] |
| 0.017 nM |  | B5 |
